Source: article PMC2917178 (Biochemistry, 2010)

Biological target: H3-H4 (Xenopus laevis, UniProt P84233 1-136; P62799 1-103)
Experiment: SEC

binding result: binds
B1: co-purified Rtt109-Vps75 complex (complex)
chain 1: MSLNDFLSSVLPVSEQFEYLSLQSIPLETHAVVTPNKDDKRVPKSTIKTQHFFSLFHQGKVFFSLEVYVYVTLWDEADAERLIFVSKADTNGYCNTRVSVRDITKIILEFILSIDPNYYLQKVKPAIRSYKKISPELISAASTPARTLRILARRLKQSGSTVLKEIESPRFQQDLYLSFTCPREILTKICLFTRPASQYLFPDSSKNSKKHILNGEELMKWWGFILDRLLIECFQNDTQAKLRIPGEDPARVRSYLRGMKYPLWQVGDIFTSKENSLAVYNIPLFPDDPKARFIHQLAEEDRLLKVSLSSFWIELQERQEFKLSVTSSVMGISGYSLATPSLFPSSADVIVPKSRKQFRAIKKYITGEEYDTEEGAIEAFTNIRDFLLLRMATNLQSLTGKREHRERNQPVPASNINTLAITMLKPRKKAKALPKT
chain 2: MMSDQENENEHAKAFLGLAKCEEEVDAIEREVELYRLNKMKPVYEKRDAYIDEIAEFWKIVLSQHVSFANYIRASDFKYIDTIDKIKVEWLALESEMYDTRDFSITFHFHGIEGDFKEQQVTKVFQIKKGKDDQEDGILTSEPVPIEWPQSYDSINPDLIKDKRSPEGKKKYRQGMKTIFGWFRWTGLKPGKEFPHGDSLASLFSEEIYPFCVKYYAEAQRDLEDEEGESGLSADGDSEDDDGSLGEVDLPLSDEEPSSKKRKV
modifications: acetyl-lysine at K290 (wildtype Rtt109 used is fully acetylated at K290, unpublished data)
